Biological target: grip2_rat Grip2 (UniProt Q9WTW1)
Sequence (Q9WTW1 whole entry): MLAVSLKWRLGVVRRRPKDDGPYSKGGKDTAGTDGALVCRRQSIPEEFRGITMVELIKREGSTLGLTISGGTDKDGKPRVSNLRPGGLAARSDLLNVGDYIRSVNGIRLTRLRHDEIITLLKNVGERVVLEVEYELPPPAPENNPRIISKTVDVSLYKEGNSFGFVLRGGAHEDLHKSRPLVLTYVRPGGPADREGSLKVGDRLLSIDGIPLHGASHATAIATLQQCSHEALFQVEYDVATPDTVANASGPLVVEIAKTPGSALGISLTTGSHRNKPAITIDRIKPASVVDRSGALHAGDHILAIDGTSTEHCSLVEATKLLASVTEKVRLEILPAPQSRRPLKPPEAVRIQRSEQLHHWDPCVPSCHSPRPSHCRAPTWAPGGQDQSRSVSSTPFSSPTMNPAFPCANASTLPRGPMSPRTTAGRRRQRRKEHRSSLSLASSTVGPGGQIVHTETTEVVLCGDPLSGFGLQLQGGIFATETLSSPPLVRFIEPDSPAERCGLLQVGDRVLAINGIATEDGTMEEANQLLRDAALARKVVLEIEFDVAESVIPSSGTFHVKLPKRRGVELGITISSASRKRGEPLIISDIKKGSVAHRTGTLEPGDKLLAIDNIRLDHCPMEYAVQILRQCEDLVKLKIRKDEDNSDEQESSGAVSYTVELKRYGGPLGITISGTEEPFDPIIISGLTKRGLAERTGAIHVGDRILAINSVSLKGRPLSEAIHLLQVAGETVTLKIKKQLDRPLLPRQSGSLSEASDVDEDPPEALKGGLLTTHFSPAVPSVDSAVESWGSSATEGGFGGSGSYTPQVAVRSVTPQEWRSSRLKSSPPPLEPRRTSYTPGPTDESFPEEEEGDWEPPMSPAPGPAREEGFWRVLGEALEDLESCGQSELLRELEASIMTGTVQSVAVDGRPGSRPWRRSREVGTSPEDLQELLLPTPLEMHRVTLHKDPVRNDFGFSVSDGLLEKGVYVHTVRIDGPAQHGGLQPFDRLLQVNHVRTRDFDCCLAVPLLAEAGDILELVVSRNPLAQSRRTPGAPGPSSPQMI

Effect of a mutation on the interaction, disrupting interaction:
Chondroitin sulfate proteoglycan 4 (Mus musculus), Q8VHY0 V2327G
Chondroitin sulfate proteoglycan 4 (Mus musculus), Q8VHY0 W2326G
Chondroitin sulfate proteoglycan 4 (Mus musculus), Q8VHY0 Y2325G

Biological target: grip1_mouse Grip1 (UniProt Q925T6)
Sequence (Q925T6 whole entry): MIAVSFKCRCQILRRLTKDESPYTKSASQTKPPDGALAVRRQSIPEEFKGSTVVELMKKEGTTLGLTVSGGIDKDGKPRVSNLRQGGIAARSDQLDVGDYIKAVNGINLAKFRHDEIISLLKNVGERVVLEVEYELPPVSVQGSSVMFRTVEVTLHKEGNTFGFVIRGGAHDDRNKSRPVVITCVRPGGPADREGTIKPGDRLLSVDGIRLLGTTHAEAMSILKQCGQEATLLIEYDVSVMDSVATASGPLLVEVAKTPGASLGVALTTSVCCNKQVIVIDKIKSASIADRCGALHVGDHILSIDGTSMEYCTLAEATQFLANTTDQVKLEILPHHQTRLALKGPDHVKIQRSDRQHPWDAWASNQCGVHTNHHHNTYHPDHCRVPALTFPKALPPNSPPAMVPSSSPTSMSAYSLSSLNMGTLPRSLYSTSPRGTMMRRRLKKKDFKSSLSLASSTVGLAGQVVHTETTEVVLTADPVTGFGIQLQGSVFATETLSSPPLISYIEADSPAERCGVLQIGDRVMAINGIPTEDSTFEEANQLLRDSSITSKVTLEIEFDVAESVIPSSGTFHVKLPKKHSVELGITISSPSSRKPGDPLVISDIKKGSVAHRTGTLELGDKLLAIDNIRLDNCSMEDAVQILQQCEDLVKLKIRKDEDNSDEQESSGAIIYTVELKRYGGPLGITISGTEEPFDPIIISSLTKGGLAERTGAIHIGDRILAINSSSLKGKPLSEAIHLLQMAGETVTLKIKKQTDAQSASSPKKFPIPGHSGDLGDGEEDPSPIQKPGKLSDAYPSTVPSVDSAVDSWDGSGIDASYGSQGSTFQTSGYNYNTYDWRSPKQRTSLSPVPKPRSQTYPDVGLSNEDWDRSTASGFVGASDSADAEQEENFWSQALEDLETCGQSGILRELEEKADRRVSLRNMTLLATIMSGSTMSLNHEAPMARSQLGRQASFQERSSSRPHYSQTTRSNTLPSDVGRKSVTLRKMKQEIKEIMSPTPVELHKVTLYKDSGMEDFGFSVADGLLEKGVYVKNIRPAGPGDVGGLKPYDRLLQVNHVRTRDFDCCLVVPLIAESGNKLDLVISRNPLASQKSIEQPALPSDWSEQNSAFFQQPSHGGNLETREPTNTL

Effect of a mutation on the interaction, disrupting interaction:
Chondroitin sulfate proteoglycan 4 (Mus musculus), Q8VHY0 V2327G
Chondroitin sulfate proteoglycan 4 (Mus musculus), Q8VHY0 W2326G
Chondroitin sulfate proteoglycan 4 (Mus musculus), Q8VHY0 Y2325G
